Tests used:
[1] = substrate: O=C(O)CCC(=O)N[C@H](CCC(=O)O)C(=O)O; experiment: steady-state kinetics; type: biochemical, Bordetella bronchiseptica; conditions: Zn2+; pH 7.5
[2] = substrate: O=CN[C@H](CCC(=O)O)C(=O)O; experiment: steady-state kinetics; type: biochemical, Bordetella bronchiseptica; conditions: Zn2+; pH 7.5

B1: Bb3285 (N-acyl-D-glutamate deacylase) (Bordetella bronchiseptica RB50) (protein)
chain: MQNAEKLDFKITGGWIIDGTGAPRRRADLGVRDGRIAAIGELGAHPARHAWDASGKIVAPGFIDVHGHDDLMFVEKPDLRWKTSQGITTVVVGNCGVSAAPAPLPGNTAAALALLGETPLFADVPAYFAALDAQRPMINVAALVGHANLRLAAMRDPQAAPTAAEQQAMQDMLQAALEAGAVGFSTGLAYQPGAVAQAAELEGLARVAAERRRLHTSHIRNEADGVEAAVEEVLAIGRGTGCATVVSHHKCMMPQNWGRSRATLANIDRAREQGVEVALDIYPYPGSSTILIPERAETIDDIRITWSTPHPECSGEYLADIAARWGCDKTTAARRLAPAGAIYFAMDEDEVKRIFQHPCCMVGSDGLPNDARPHPRLWGSFTRVLGRYVREARLMTLEQAVARMTALPARVFGFAERGVLQPGAWADVVVFDPDTVADRATWDEPTLASVGIAGVLVNGAEVFPQPPADGRPGQVLRAGA
B1 was tested. Which kcat/Km [1] did it give?
Its kcat/Km is 96000 ± 35000 M⁻¹ s⁻¹.

And the Km [2]?
Its Km is 380 ± 35 µM.

What about the kcat [2] of the same protein?
The kcat was 2200 ± 72 s⁻¹.

From PMC2748305
